Reference: the supplement of paper PMC7877785
± gives the uncertainty stated by the source.

Test: self-splicing fitness, log relative to wild type (ln ratio); higher = more splicing; Tetrahymena group I intron in knt gene, E. coli kanamycin selection, DiMSum; sequences stand for … in CUCUCU…GGAGGGAAAAGUUAUCAGGCAUGCACCUGGUAGCUAGUCUUUAAACCAAUAGAUUGCAUCGGUUUAAAAGGCAAGACCGUCAAAUUGCGGGAAAGGGGUCAACAGCCGUUCAGUACCAAGUCUCAGGGGAAACUUUGAGAUGGCCUUGCAAAGGGUAUGGUAAUAAGCUGACGGACAUGGUCCUAACCACGCAGCCAAGUCCUAAGUCAACAGAUCUUCUGUUGAUAUGGAUGCAGUUCACAGACUAAAUGUCGGUCGGGGAAGAUGUAUUCUUCUCAUAAGAUAUAGUCGGACCUCUCCUUAAUGGGAGCUAGCGGAUGAAGUGAUGCAACACUGGAGCCGCUGGGAACUAAUUUGUAUGCGAAAGUAUAUUGAUUAGUUUUGGAGUACUCGUGGUCG
How it was run: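 Six replicate transformations of E. coli BL21(DE3) with a pET-22b(+) library were grown overnight at 37°C or 30°C. The library randomised all eight P1ex-region intron nucleotides, the intron lying in the knt kanamycin-resistance gene, and plates were LB agar with or without 25 μg/mL kanamycin plus 100 μg/mL carbenicillin, 50 μM IPTG and 0.2% rhamnose. Pooled colonies were amplicon-sequenced on an Illumina HiSeq 2500, and fitness is the DiMSum error-weighted combination of wild-type-normalised replicate fold changes, kanamycin versus none.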

| Sequence | self-splicing fitness (ln) (30 °C) | self-splicing fitness (ln) (37 °C) |
| --- | --- | --- |
| ACUAAGCAAUAUUACGGAGC | -2.87 ± 0.17 | -0.628 ± 0.14 |
| ACUAAGCAAUAUUACGGCAA | -0.655 ± 0.089 | -0.133 ± 0.1 |
| ACUAAGCAAUAUUACGGCUU | -2.2 ± 0.1 | -1.27 ± 0.12 |
| ACUAAGCAAUAUUACGGGCA | -1.27 ± 0.089 | -0.405 ± 0.1 |
| ACUAAGCAAUAUUACGGUUC | -3.92 ± 0.2 | -1.42 ± 0.13 |
| ACUAAGCAAUAUUACGUAGU | -3.04 ± 0.14 | -3.45 ± 0.21 |
| ACUAAGCAAUAUUACGUCUG | -1.37 ± 0.084 | -0.847 ± 0.1 |
| ACUCAGCAAUAUUACGAAAG | -1.78 ± 0.12 | -1.42 ± 0.15 |
| ACUCAGCAAUAUUACGAACU | -0.166 ± 0.053 | 0.599 ± 0.066 |
| ACUCAGCAAUAUUACGAAGA | -0.868 ± 0.1 | -0.958 ± 0.11 |
| ACUCAGCAAUAUUACGACCU | -0.248 ± 0.12 | 0.216 ± 0.13 |
| ACUCAGCAAUAUUACGAGUC | -5.21 ± 0.29 | -2.97 ± 0.2 |
| ACUCAGCAAUAUUACGAUAG | -4.03 ± 0.24 | -2.21 ± 0.17 |
| ACUCAGCAAUAUUACGCCGC | -2.78 ± 0.28 | -1.78 ± 0.43 |
| ACUCAGCAAUAUUACGCCUA | -0.864 ± 0.15 | -0.0704 ± 0.12 |
| ACUCAGCAAUAUUACGCGCA | -0.615 ± 0.14 | -0.153 ± 0.1 |
| ACUCAGCAAUAUUACGCGCC | -1.17 ± 0.16 | -0.503 ± 0.17 |
| ACUCAGCAAUAUUACGCUGA | -3.74 ± 0.3 | -3.15 ± 0.34 |
| ACUCAGCAAUAUUACGCUGC | -3.36 ± 0.3 | -2.24 ± 0.29 |
| ACUCAGCAAUAUUACGCUUG | -1.83 ± 0.069 | -0.599 ± 0.083 |
| ACUCAGCAAUAUUACGCUUU | -1.85 ± 0.095 | -0.42 ± 0.11 |
| ACUCAGCAAUAUUACGGCCA | -1.28 ± 0.13 | -0.0774 ± 0.16 |
| ACUCAGCAAUAUUACGGCGC | -0.183 ± 0.068 | 0.000506 ± 0.097 |
| ACUCAGCAAUAUUACGGGGC | -4.64 ± 0.34 | -2.93 ± 0.44 |

| Sequence | self-splicing fitness (ln) (30 °C) | self-splicing fitness (ln) (37 °C) |
| --- | --- | --- |
| ACUCAGCAAUAUUACGGUAA | -1.66 ± 0.092 | -0.871 ± 0.081 |
| ACUCAGCAAUAUUACGGUGG | -4.04 ± 0.22 | -2.67 ± 0.18 |
| ACUCAGCAAUAUUACGUCGA | -3.15 ± 0.25 | -1.94 ± 0.18 |
| ACUCAGCAAUAUUACGUGCA | -0.681 ± 0.095 | -0.372 ± 0.11 |
| ACUCAGCAAUAUUACGUUGC | -3.43 ± 0.16 | -3.57 ± 0.26 |
| ACUCAGCAAUAUUACGUUUG | -2.36 ± 0.095 | -1.94 ± 0.14 |
| ACUGAGCAAUAUUACGAGCG | -2.44 ± 0.14 | -0.615 ± 0.13 |
| ACUGAGCAAUAUUACGAGGU | -2.91 ± 0.14 | -1.99 ± 0.23 |
| ACUGAGCAAUAUUACGAUAG | -5.01 ± 0.39 | -1.78 ± 0.17 |
| ACUGAGCAAUAUUACGAUGG | -2.16 ± 0.096 | -1.13 ± 0.1 |
| ACUGAGCAAUAUUACGCCAA | -3.45 ± 0.29 | -2.74 ± 0.22 |
| ACUGAGCAAUAUUACGCGUU | -3.38 ± 0.17 | -1.51 ± 0.13 |
| ACUGAGCAAUAUUACGCUCA | -3.23 ± 0.24 | -1.87 ± 0.18 |
| ACUGAGCAAUAUUACGCUUU | -2.53 ± 0.21 | -1.37 ± 0.18 |
| ACUGAGCAAUAUUACGGACC | -2.23 ± 0.26 | -1.14 ± 0.26 |
| ACUGAGCAAUAUUACGGCCG | -1.89 ± 0.17 | -0.752 ± 0.2 |
| ACUGAGCAAUAUUACGGCGC | -1.09 ± 0.088 | -0.47 ± 0.11 |
| ACUGAGCAAUAUUACGGGGA | -2.48 ± 0.17 | -1.92 ± 0.18 |
| ACUGAGCAAUAUUACGGGGU | -2.72 ± 0.14 | -3.13 ± 0.28 |
| ACUGAGCAAUAUUACGGUAU | -3.55 ± 0.18 | -3.17 ± 0.26 |
| ACUGAGCAAUAUUACGUACG | -2.42 ± 0.22 | -2.07 ± 0.25 |
| ACUGAGCAAUAUUACGUCGA | -3.59 ± 0.22 | -2.07 ± 0.18 |
| ACUUAGCAAUAUUACGAAUC | -3.59 ± 0.23 | -0.386 ± 0.23 |
| ACUUAGCAAUAUUACGACCG | -0.573 ± 0.18 | -0.217 ± 0.26 |

| Sequence | self-splicing fitness (ln) (30 °C) | self-splicing fitness (ln) (37 °C) |
| --- | --- | --- |
| ACUUAGCAAUAUUACGAGAU | -2.61 ± 0.2 | -2.95 ± 0.24 |
| ACUUAGCAAUAUUACGAGCC | -2.49 ± 0.3 | -1.26 ± 0.31 |
| ACUUAGCAAUAUUACGAGUA | 0.101 ± 0.18 | -1.33 ± 0.21 |
| ACUUAGCAAUAUUACGAUCG | -1.4 ± 0.11 | -1.23 ± 0.14 |
| ACUUAGCAAUAUUACGAUUG | -3.17 ± 0.2 | -0.306 ± 0.16 |
| ACUUAGCAAUAUUACGCAAU | -3.64 ± 0.26 | -2.05 ± 0.21 |
| ACUUAGCAAUAUUACGCUCA | -0.842 ± 0.13 | -0.196 ± 0.15 |
| ACUUAGCAAUAUUACGGACC | -0.607 ± 0.15 | -0.756 ± 0.25 |
| ACUUAGCAAUAUUACGGCCA | -0.83 ± 0.13 | -0.409 ± 0.19 |
| ACUUAGCAAUAUUACGGUUA | -1.27 ± 0.17 | -0.752 ± 0.15 |
| ACUUAGCAAUAUUACGUAAA | -2.37 ± 0.2 | -0.419 ± 0.2 |
| ACUUAGCAAUAUUACGUACG | -1.45 ± 0.099 | -1.04 ± 0.13 |
| ACUUAGCAAUAUUACGUAGA | -3.26 ± 0.13 | -1.59 ± 0.11 |
| ACUUAGCAAUAUUACGUCGG | -2.34 ± 0.14 | -1.59 ± 0.17 |
| ACUUAGCAAUAUUACGUGAU | -2.53 ± 0.1 | -1.37 ± 0.1 |
| ACUUAGCAAUAUUACGUGGC | -2.83 ± 0.16 | -2.85 ± 0.29 |
| AGAAAGCAAUAUUACGAACC | -1.29 ± 0.17 | -0.276 ± 0.13 |
| AGAAAGCAAUAUUACGAGGG | -2.8 ± 0.21 | -2.61 ± 0.36 |
| AGAAAGCAAUAUUACGAUGC | -2.16 ± 0.14 | -1.38 ± 0.13 |
| AGAAAGCAAUAUUACGCACA | -0.139 ± 0.1 | -0.236 ± 0.12 |
| AGAAAGCAAUAUUACGCACU | -0.82 ± 0.15 | -1.17 ± 0.18 |
| AGAAAGCAAUAUUACGCCUC | -1.37 ± 0.17 | -0.948 ± 0.23 |
| AGAAAGCAAUAUUACGCGAA | -1.95 ± 0.13 | -1.08 ± 0.16 |
| AGAAAGCAAUAUUACGCGCA | -0.218 ± 0.094 | 0.174 ± 0.11 |

| Sequence | self-splicing fitness (ln) (30 °C) | self-splicing fitness (ln) (37 °C) |
| --- | --- | --- |
| AGAAAGCAAUAUUACGCGUU | -2.71 ± 0.16 | -2.34 ± 0.17 |
| AGAAAGCAAUAUUACGCUAG | -3.32 ± 0.22 | -2.65 ± 0.21 |
| AGAAAGCAAUAUUACGCUCU | -3.2 ± 0.37 | -2.58 ± 0.49 |
| AGAAAGCAAUAUUACGCUUC | -1.58 ± 0.27 | -2.22 ± 0.39 |
| AGAAAGCAAUAUUACGGAAA | -1.63 ± 0.14 | -1.33 ± 0.15 |
| AGAAAGCAAUAUUACGGAUU | -2.21 ± 0.14 | -0.867 ± 0.16 |
| AGAAAGCAAUAUUACGGGGU | -3.8 ± 0.22 | -2.34 ± 0.23 |
| AGAAAGCAAUAUUACGGUAC | -3.29 ± 0.32 | -1.67 ± 0.23 |
| AGAAAGCAAUAUUACGUAAA | -2.15 ± 0.12 | -1.88 ± 0.14 |
| AGAAAGCAAUAUUACGUAAG | -1.61 ± 0.084 | -0.0907 ± 0.095 |
| AGAAAGCAAUAUUACGUGGU | -4.26 ± 0.29 | -2.41 ± 0.16 |
| AGACAGCAAUAUUACGACUC | -2.28 ± 0.18 | -0.623 ± 0.2 |
| AGACAGCAAUAUUACGAGGU | -3.46 ± 0.16 | -1.87 ± 0.13 |
| AGACAGCAAUAUUACGAUCU | -2.62 ± 0.12 | -0.863 ± 0.1 |
| AGACAGCAAUAUUACGCGGC | -3.51 ± 0.24 | -2.15 ± 0.21 |
| AGACAGCAAUAUUACGCGUA | -1.43 ± 0.084 | -0.867 ± 0.074 |
| AGACAGCAAUAUUACGGAAA | -3.32 ± 0.26 | -1.48 ± 0.13 |
| AGACAGCAAUAUUACGGAUU | -2.55 ± 0.088 | -1.45 ± 0.089 |
| AGACAGCAAUAUUACGGCCG | -1.26 ± 0.078 | -0.403 ± 0.12 |
| AGACAGCAAUAUUACGGCGA | -0.438 ± 0.069 | -0.143 ± 0.083 |
| AGACAGCAAUAUUACGGGAG | -3.93 ± 0.16 | -2.89 ± 0.17 |
| AGACAGCAAUAUUACGGGCU | -1.78 ± 0.11 | -0.732 ± 0.13 |
